# Values quoted from earlier work, collected in paper PMC12787518.
# Like-named read-outs stand apart in the source and are kept apart here.
# How the values were obtained:
# His31 = His31 (UniProt position 31, TIGIGHLLTKS)
# Asp70 = Asp70 (UniProt position 70, KLFNQDVDAAV); conditions: folded (native, Asp70-His31 salt bridge formed)
substance,measurement,setting,value
T4 lysozyme (Enterobacteria phage T4 (Tequatrovirus T4)),pKa,"His31; folded (native, Asp70-His31 salt bridge formed)",9.1
same,pKa,"His31; unfolded (before folding, no salt bridge), inferred from the wording 'during ... folding'",6.8
same,pKa,Asp70,0.5
